The RNAGym collection of RNA variant scans (doi:10.1093/molbev/msab373)

B1: Azoarcus group I ribozyme (parent)
chain: GUGCCUUGCGCCGGGAAACCACGCAAGGGAUGGUGUCAAAUUCGGCGAAACCUAAGCGCCCGCCCGGGCGUAUGGCAACGCCGAGCCAAGCUUCGGCGCCUGCGCCGAUGAAGGUGUAGAGACUAGACGGCACCCACCUAAGGCAAACGCUAUGGUGAAGGCAUAGUCCAGGGAGUGGCGAAAGUCACACAAACCGG

Variants of: B1
Assay: reverse-splicing fitness (ratio to wild type); higher = more active; in vitro selection; Mg2+ level not given
Summary of the method: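 An in vitro group I ribozyme library with randomized positions was T7-transcribed and gel-purified. In triplicate, 10 pmol RNA in EPPS pH 7.5 was reacted with 50 pmoles of a 30-nt RNA substrate for 1 h at 37 °C across several added MgCl2 levels (1–48 mM), then stopped with EDTA. Products were reverse transcribed from a substrate-complementary primer, PCR-amplified and sequenced (HiSeq 4000). Fitness is a variant's read proportion after selection over that before, normalised to wild type.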

Variant | reverse-splicing fitness
C82A A111G A145C C150U U176A | 0.0434
C82A A111G A145C C150U U176C | 0.0542
C82A A111G A120U A145C C169G U176A | 0.00249
C82A A111G A120U A145C C169G U176C | 0.00189
C82A A111G A120U A145C C169G U176G | 0.00175
C82A A111G A120U A145U C150G U176A | 0.0037
C82A A111G A120U A145U C150G U176G | 0.0023
C82A A111G A120U A145U C150G U176C | 0.00587
C82A A111G A120U A145G C150A C169A U176C | 0.0046
C82A A111G A120U A145G C150A C169A U176G | 0.00291
C82A A111G A120U A145G C150A C169A U176A | 0.00865
C82A A111G A120U A145G C150A C169G U176C | 0.00705
C82A A111G A120U A145G C150A C169G U176A | 0.015
C82A A111G A120U A145G C150A C169G U176G | 0.00282
C82A A111G A145C C150A U176C | 0.0184
C82A A111G A145C C150A U176G | 0.00802
C82A A111G A145C C150A U176A | 0.015
C82A A111G A120U A145C C150G C169U | 0.00332
C82A A111G A120U A145C C150G C169A | 0.0025
C82A A111G A120U A145C C150G C169G | 0.00351
C82A A111G A120U A145G C150A U176G | 0.00419

Variant | reverse-splicing fitness
C82A A111G A120U A145G C150A U176C | 0.00808
C82A A111G A120U A145G C150A U176A | 0.00782
C82A A111G A120U A145G C169A U176C | 0.00333
C82A A111G A120U A145G C169A U176A | 0.0033
C82A A111G A120U A145G C169A U176G | 0.002
C82A A111G A120U A145G C150G U176G | 0.00403
C82A A111G A120U A145G C150G U176A | 0.00592
C82A A111G A120U A145G C150G U176C | 0.00835
C82A A111G A120U A145G C150G C169G | 0.00653
C82A A111G A120U A145G C150G C169A | 0.00837
C82A A111G A120U A145G C150G C169U | 0.00766
C82A A111G A120U A145C C150A C169G U176C | 0.00235
C82A A111G A120U A145C C150A C169G U176A | 0.00315
C82A A111G A120U A145C C150A C169G U176G | 0.00149
C82A A111G A145C C150U C169U U176G | 0.0052
C82A A111G A145C C150U C169U U176C | 0.00981
C82A A111G A145C C150U C169U U176A | 0.0126
C82A A111G A120U C150U C169U U176G | 0.00221
C82A A111G A120U C150U C169U U176C | 0.00428
C82A A111G A120U C150U C169U U176A | 0.00475
C82A A111G A120U A145C C150A U176G | 0.00207

Variant | reverse-splicing fitness
C82A A111G A120U A145C C150A U176A | 0.003
C82A A111G A120U A145C C150A U176C | 0.00355
C82A A111G A145C C150A C169G U176A | 0.0291
C82A A111G A145C C150A C169G U176G | 0.00722
C82A A111G A145C C150A C169G U176C | 0.0145
C82A A111G A120U | 0.0351
C82A A111G A120U A145G C150A | 0.00991
C82A A111G A120U A145G C150G | 0.00855
C82A A111G A120U A145G C150U | 0.0257
C82A A111G A120U A145C C150G C169A U176C | 0.00205
C82A A111G A120U A145C C150G C169A U176G | 0.00179
C82A A111G A120U A145C C150G C169A U176A | 0.00214
C82A A111G A120U C150G C169A U176C | 0.00609
C82A A111G A120U C150G C169A U176G | 0.0031
C82A A111G A120U C150G C169A U176A | 0.00738
C82A A111G A120G C169U U176A | 0.0208
C82A A111G A120G C169U U176G | 0.00531
C82A A111G A120G C169U U176C | 0.0183
C82A A111G A120U A145C C150A C169U U176C | 0.00198
C82A A111G A120U A145C C150A C169U U176A | 0.00351
C82A A111G A120U A145C C150A C169U U176G | 0.00212

Variant | reverse-splicing fitness
C82A A111G A145C C169A U176C | 0.00756
C82A A111G A145C C169A U176A | 0.0123
C82A A111G A145C C169A U176G | 0.00582
C82A A111G A145C C150U C169G U176C | 0.0114
C82A A111G A145C C150U C169G U176G | 0.00676
C82A A111G A145C C150U C169G U176A | 0.0215
C82A A111G A120U A145C | 0.027
C82A A111G A120U A145U | 0.0342
C82A A111G A120U A145G | 0.0318
C82A A111G A120U A145C C169U U176C | 0.00282
C82A A111G A120U A145C C169U U176A | 0.00302
C82A A111G A120U A145C C169U U176G | 0.00153
C82A A111G A120U A145G C150U C169A U176A | 0.00727
C82A A111G A120U A145G C150U C169A U176G | 0.00232
C82A A111G A120U A145G C150U C169A U176C | 0.0045
C82A A111G A120U A145G C150A C169A | 0.00676
C82A A111G A120U A145G C150A C169G | 0.00666
C82A A111G A120U A145G C150A C169U | 0.00455
C82A A111G A120U A145U C150G C169G U176G | 0.00259
C82A A111G A120U A145U C150G C169G U176C | 0.00281
